Experimental data: patent US20230416371A1 (Chugai, published 2023)
Each block holds one binder with its values, some of them ahead of it.

Experiments:
[1] = molecular target: T1, human FcγRIIa H (allotype H131) extracellular domain (human, UniProt P12318 34-217); assay: SPR Biacore 8K+; KD for FcγRIIb divided by KD for this FcγR
T1 construct: extracellular domain; also called hFcγRIIaH
T1 sequence (looked up): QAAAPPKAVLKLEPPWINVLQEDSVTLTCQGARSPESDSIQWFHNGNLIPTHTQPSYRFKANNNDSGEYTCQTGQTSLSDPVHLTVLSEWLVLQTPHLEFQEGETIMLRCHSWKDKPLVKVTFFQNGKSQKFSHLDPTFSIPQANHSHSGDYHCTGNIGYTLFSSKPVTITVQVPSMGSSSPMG
Description: (§1) The extracellular domains of FcγRs were produced by the method described in WO2014104165. The interaction between the produced antibodies and human FcγRs was analyzed using Biacore 8K+by the method below. For the running buffer, 50 mM Na-Phosphate, 150 mM NaCl, and 0.05% Tween20 (pH 7.4) was used, and measurement was performed at 25° C. The sensor chip used was a Series S SA chip (GE Healthcare) onto which CaptureSelect Human Fab-kappa Kinetics Biotin Conjugate (Thermo Fisher Scientific) was immobilized. An antibody of interest was captured onto this chip, and each FcγR diluted with the running buffer was allowed to interact with it. The chip was regenerated using 10 mM Glycine-HCl (pH 1.5), and repeatedly used to capture antibodies and perform measurement. The dissociation constants KD (mol/L) of each antibody for FcγRs were calculated using Biacore Insight Evaluation Software, with a steady state affinity model for the dissociation constant for FcγRIIb and a 1:1 Langmuir binding model for the dissociation constants for the other FcγRs (Table 2).

[2] = molecular target: T2, human FcγRIIIa F (allotype F158) extracellular domain (human, UniProt P08637 17-208); assay: SPR Biacore 8K+, 25 C, antibody captured, FcγR as analyte, 1:1 Langmuir model
T2 construct: extracellular domain; also called hFcγRIIIaF
Description: as §1

[3] = molecular target: T3, human FcγRIIIa V (allotype V158) extracellular domain (human, UniProt P08637 17-208); assay: SPR Biacore 8K+; KD of G1d divided by KD of this antibody
T3 construct: extracellular domain; also called hFcγRIIIaV
Description: as §1

[4] = molecular target: T1, human FcγRIIa H (allotype H131) …; assay: SPR Biacore 8K+, 25 C, antibody captured, FcγR as analyte, 1:1 Langmuir model
Description: as §1

[5] = molecular target: T2, human FcγRIIIa F (allotype F158) …; assay: SPR Biacore 8K+; KD of G1d divided by KD of this antibody
Description: as §1

[6] = molecular target: T4, human FcγRIIb extracellular domain (human, UniProt P31994 43-217); assay: SPR Biacore 8K+, 25 C, antibody captured, FcγR as analyte, steady state affinity model
T4 construct: extracellular domain; also called hFcγRIIb
T4 sequence (looked up): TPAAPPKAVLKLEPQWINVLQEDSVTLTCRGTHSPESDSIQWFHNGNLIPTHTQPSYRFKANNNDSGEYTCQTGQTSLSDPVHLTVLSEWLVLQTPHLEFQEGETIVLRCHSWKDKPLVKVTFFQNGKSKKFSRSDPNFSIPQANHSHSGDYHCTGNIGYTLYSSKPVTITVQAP
Description: as §1

[7] = molecular target: T3, human FcγRIIIa V (allotype V158) …; assay: SPR Biacore 8K+, 25 C, antibody captured, FcγR as analyte, 1:1 Langmuir model
Description: as §1

[8] = molecular target: T4, human FcγRIIb extracellular domain; assay: SPR Biacore 8K+; KD of G1d divided by KD of this antibody
Description: as §1

[9] = molecular target: T1, human FcγRIIa H (allotype H131) …; assay: as above
Description: as §1

[10] = molecular target: hFcγRIIIaV on hFcγRIIIaV-expressing Jurkat cells (human, UniProt P08637 17-254); assay: cell-based or functional assay
hFcγRIIIaV on hFcγRIIIaV-expressing Jurkat cells, sequence (P08637 17-254, form in doubt): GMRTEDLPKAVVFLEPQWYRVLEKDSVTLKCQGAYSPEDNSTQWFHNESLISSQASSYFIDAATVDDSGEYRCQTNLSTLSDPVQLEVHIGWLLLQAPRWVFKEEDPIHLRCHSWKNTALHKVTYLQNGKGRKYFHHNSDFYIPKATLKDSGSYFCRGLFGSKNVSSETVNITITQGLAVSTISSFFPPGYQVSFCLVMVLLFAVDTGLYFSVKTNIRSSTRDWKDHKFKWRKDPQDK

T2 sequence (P08637 17-208): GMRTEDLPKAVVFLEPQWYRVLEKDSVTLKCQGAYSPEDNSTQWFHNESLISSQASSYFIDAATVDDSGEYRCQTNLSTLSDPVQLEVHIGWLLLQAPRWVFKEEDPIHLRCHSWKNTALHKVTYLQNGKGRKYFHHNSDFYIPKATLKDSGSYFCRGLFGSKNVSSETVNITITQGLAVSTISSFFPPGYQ
T3 sequence (P08637 17-208 F176V): as the sequence (P08637 17-208) above, with F160V counted along it

- A/I ratio (KD for FcγRIIb divided by KD for each FcγR) [1]: 6.9
B1: EGL-G1d (H240-G1d/L73-k0) (antibody, human IgG1, kappa)
heavy: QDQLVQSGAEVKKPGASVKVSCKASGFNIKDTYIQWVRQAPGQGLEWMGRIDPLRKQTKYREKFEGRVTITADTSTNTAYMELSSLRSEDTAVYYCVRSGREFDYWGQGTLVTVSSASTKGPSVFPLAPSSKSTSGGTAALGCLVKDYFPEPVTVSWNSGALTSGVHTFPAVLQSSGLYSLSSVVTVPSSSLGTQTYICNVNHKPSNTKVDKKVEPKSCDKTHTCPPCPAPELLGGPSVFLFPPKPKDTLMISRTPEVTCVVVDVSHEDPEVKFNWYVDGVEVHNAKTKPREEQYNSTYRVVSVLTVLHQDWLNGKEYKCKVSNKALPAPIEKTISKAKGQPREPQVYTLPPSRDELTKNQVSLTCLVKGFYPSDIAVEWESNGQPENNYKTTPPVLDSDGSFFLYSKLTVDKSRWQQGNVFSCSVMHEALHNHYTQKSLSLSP
light: DIQMTQSPSSLSASVGDRVTITCRASQDIHKYIAWYQQKPGQAPRLLIQYTSTLQPGVPSRFSGSGSGTDYTFTISSLQPEDIATYYCLQYEQLRTFGGGTKVEIKRTVAAPSVFIFPPSDEQLKSGTASVVCLLNNFYPREAKVQWKVDNALQSGNSQESVTEQDSKDSTYSLSSTLTLSKADYEKHKVYACEVTHQGLSSPVTKSFNRGEC
notes: Anti-human Epiregulin antibody with human IgG1 constant region G1d (C-terminal Lys and Gly deleted); parent of all Fc variants; also called H240-Gld/L73-k0; anti-hEREG control antibody

- Kd [2]: 26.5 nM
- Relative value to KD between G1d and hFcγRs [3]: 36.6 times
B2: EGL-SDALIE (H240-Kn032/L73-k0//H240-H1032/L73-k0) (antibody, human IgG1, kappa)
heavy 1: QDQLVQSGAEVKKPGASVKVSCKASGFNIKDTYIQWVRQAPGQGLEWMGRIDPLRKQTKYREKFEGRVTITADTSTNTAYMELSSLRSEDTAVYYCVRSGREFDYWGQGTLVTVSSASTKGPSVFPLAPSSKSTSGGTAALGCLVKDYFPEPVTVSWNSGALTSGVHTFPAVLQSSGLYSLSSVVTVPSSSLGTQTYICNVNHKPSNTKVDKKVEPKSCDKTHTCPPCPAPELLGGPDVFLFPPKPKDTLMISRTPEVTCVVVDVSHEDPEVKFNWYVDGVEVHNAKTKPREEQYNSTYRVVSVLTVLHQDWLNGKEYKCKVSNKALPLPEEKTISKAKGQPREPQVCTLPPSRDELTKNQVSLWCLVKGFYPSDIAVEWESNGQPENNYKTTPPVLDSDGSFFLYSKLTVDKSRWQQGNVFSCSVMHEALHNHYTQKSLSLSP
heavy 2: QDQLVQSGAEVKKPGASVKVSCKASGFNIKDTYIQWVRQAPGQGLEWMGRIDPLRKQTKYREKFEGRVTITADTSTNTAYMELSSLRSEDTAVYYCVRSGREFDYWGQGTLVTVSSASTKGPSVFPLAPSSKSTSGGTAALGCLVKDYFPEPVTVSWNSGALTSGVHTFPAVLQSSGLYSLSSVVTVPSSSLGTQTYICNVNHKPSNTKVDKKVEPKSCDKTHTCPPCPAPELLGGPDVFLFPPKPKDTLMISRTPEVTCVVVDVSHEDPEVKFNWYVDGVEVHNAKTKPREEQYNSTYRVVSVLTVLHQDWLNGKEYKCKVSNKALPLPEEKTISKAKGQPREPQVYTLPPSRCELTKNQVSLSCAVKGFYPSDIAVEWESNGQPENNYKTTPPVLDSDGSFFLVSKLTVDKSRWQQGNVFSCSVMHEALHNHYTQKSLSLSP
light: DIQMTQSPSSLSASVGDRVTITCRASQDIHKYIAWYQQKPGQAPRLLIQYTSTLQPGVPSRFSGSGSGTDYTFTISSLQPEDIATYYCLQYEQLRTFGGGTKVEIKRTVAAPSVFIFPPSDEQLKSGTASVVCLLNNFYPREAKVQWKVDNALQSGNSQESVTEQDSKDSTYSLSSTLTLSKADYEKHKVYACEVTHQGLSSPVTKSFNRGEC
notes: Anti-human Epiregulin IgG1 with S239D/A330L/I332E in both CH2 domains and knobs-into-holes in CH3

- Kd [4]: 152 nM
B3: EGL-GASDALIE (H240-GASDALIE/L73-k0) (antibody, human IgG1, kappa)
heavy: QDQLVQSGAEVKKPGASVKVSCKASGFNIKDTYIQWVRQAPGQGLEWMGRIDPLRKQTKYREKFEGRVTITADTSTNTAYMELSSLRSEDTAVYYCVRSGREFDYWGQGTLVTVSSASTKGPSVFPLAPSSKSTSGGTAALGCLVKDYFPEPVTVSWNSGALTSGVHTFPAVLQSSGLYSLSSVVTVPSSSLGTQTYICNVNHKPSNTKVDKKVEPKSCDKTHTCPPCPAPELLAGPDVFLFPPKPKDTLMISRTPEVTCVVVDVSHEDPEVKFNWYVDGVEVHNAKTKPREEQYNSTYRVVSVLTVLHQDWLNGKEYKCKVSNKALPLPEEKTISKAKGQPREPQVYTLPPSRDELTKNQVSLTCLVKGFYPSDIAVEWESNGQPENNYKTTPPVLDSDGSFFLYSKLTVDKSRWQQGNVFSCSVMHEALHNHYTQKSLSLSP
light: DIQMTQSPSSLSASVGDRVTITCRASQDIHKYIAWYQQKPGQAPRLLIQYTSTLQPGVPSRFSGSGSGTDYTFTISSLQPEDIATYYCLQYEQLRTFGGGTKVEIKRTVAAPSVFIFPPSDEQLKSGTASVVCLLNNFYPREAKVQWKVDNALQSGNSQESVTEQDSKDSTYSLSSTLTLSKADYEKHKVYACEVTHQGLSSPVTKSFNRGEC
notes: Anti-human Epiregulin IgG1 with symmetric G236A/S239D/A330L/I332E

- Relative value to KD between G1d and hFcγRs [5]: 1270 times
B4: EGL-ART10 (H240-Kn494/L73-k0//H240-HI514/L73-k0) (antibody, human IgG1, kappa)
heavy 1: QDQLVQSGAEVKKPGASVKVSCKASGFNIKDTYIQWVRQAPGQGLEWMGRIDPLRKQTKYREKFEGRVTITADTSTNTAYMELSSLRSEDTAVYYCVRSGREFDYWGQGTLVTVSSASTKGPSVFPLAPSSKSTSGGTAALGCLVKDYFPEPVTVSWNSGALTSGVHTFPAVLQSSGLYSLSSVVTVPSSSLGTQTYICNVNHKPSNTKVDKKVEPKSCDKTHTCPPCPAPEFQWGPMVFLFPPKPKDVLMISRTPEVTCVVVDVSDEEPEVKFNWYVDGVEVHNAKTKPREEQYNATYRVVSVLPVLHQDWLNGKEYKCKVSNKALPAPEEKTISKAKGQPREPQVCTLPPSRDELTKNQVSLWCLVKGFYPSDIAVEWESNGQPENNYKTTPPVLDSDGSFFLYSKLTVDKSRWQQGNVFSCSVMHEALHNHYTQKSLSLSP
heavy 2: QDQLVQSGAEVKKPGASVKVSCKASGFNIKDTYIQWVRQAPGQGLEWMGRIDPLRKQTKYREKFEGRVTITADTSTNTAYMELSSLRSEDTAVYYCVRSGREFDYWGQGTLVTVSSASTKGPSVFPLAPSSKSTSGGTAALGCLVKDYFPEPVTVSWNSGALTSGVHTFPAVLQSSGLYSLSSVVTVPSSSLGTQTYICNVNHKPSNTKVDKKVEPKSCDKTHTCPPCPAPELLGGPSVFLFPPKPKDVLMISRTPEVTCVVVDVSHEEPEVKFNWYVDGVEVHNAKTKPREEQYNATYRVVSVLPVLHQDWLNGKEYKCKVSNDALPAPEEETISKAKGQPREPQVYTLPPSRCELTKNQVSLSCAVKGFYPSDIAVEWESNGQPENNYKTTPPVLDSDGSFFLVSKLTVDKSRWQQGNVFSCSVMHEALHNHYTQKSLSLSP
light: DIQMTQSPSSLSASVGDRVTITCRASQDIHKYIAWYQQKPGQAPRLLIQYTSTLQPGVPSRFSGSGSGTDYTFTISSLQPEDIATYYCLQYEQLRTFGGGTKVEIKRTVAAPSVFIFPPSDEQLKSGTASVVCLLNNFYPREAKVQWKVDNALQSGNSQESVTEQDSKDSTYSLSSTLTLSKADYEKHKVYACEVTHQGLSSPVTKSFNRGEC
notes: Anti-human Epiregulin IgG1 with heterodimeric (knobs-into-holes) Fc variant

- Kd [6]: 12.5 nM
B5: EGL-GASDIE (H240-Kn037/L73-k0//H240-H1036/L73-k0) (antibody, human IgG1, kappa)
heavy 1: QDQLVQSGAEVKKPGASVKVSCKASGFNIKDTYIQWVRQAPGQGLEWMGRIDPLRKQTKYREKFEGRVTITADTSTNTAYMELSSLRSEDTAVYYCVRSGREFDYWGQGTLVTVSSASTKGPSVFPLAPSSKSTSGGTAALGCLVKDYFPEPVTVSWNSGALTSGVHTFPAVLQSSGLYSLSSVVTVPSSSLGTQTYICNVNHKPSNTKVDKKVEPKSCDKTHTCPPCPAPELLAGPDVFLFPPKPKDTLMISRTPEVTCVVVDVSHEDPEVKFNWYVDGVEVHNAKTKPREEQYNSTYRVVSVLTVLHQDWLNGKEYKCKVSNKALPAPEEKTISKAKGQPREPQVCTLPPSRDELTKNQVSLWCLVKGFYPSDIAVEWESNGQPENNYKTTPPVLDSDGSFFLYSKLTVDKSRWQQGNVFSCSVMHEALHNHYTQKSLSLSP
heavy 2: QDQLVQSGAEVKKPGASVKVSCKASGFNIKDTYIQWVRQAPGQGLEWMGRIDPLRKQTKYREKFEGRVTITADTSTNTAYMELSSLRSEDTAVYYCVRSGREFDYWGQGTLVTVSSASTKGPSVFPLAPSSKSTSGGTAALGCLVKDYFPEPVTVSWNSGALTSGVHTFPAVLQSSGLYSLSSVVTVPSSSLGTQTYICNVNHKPSNTKVDKKVEPKSCDKTHTCPPCPAPELLAGPDVFLFPPKPKDTLMISRTPEVTCVVVDVSHEDPEVKFNWYVDGVEVHNAKTKPREEQYNSTYRVVSVLTVLHQDWLNGKEYKCKVSNKALPAPEEKTISKAKGQPREPQVYTLPPSRCELTKNQVSLSCAVKGFYPSDIAVEWESNGQPENNYKTTPPVLDSDGSFFLVSKLTVDKSRWQQGNVFSCSVMHEALHNHYTQKSLSLSP
light: DIQMTQSPSSLSASVGDRVTITCRASQDIHKYIAWYQQKPGQAPRLLIQYTSTLQPGVPSRFSGSGSGTDYTFTISSLQPEDIATYYCLQYEQLRTFGGGTKVEIKRTVAAPSVFIFPPSDEQLKSGTASVVCLLNNFYPREAKVQWKVDNALQSGNSQESVTEQDSKDSTYSLSSTLTLSKADYEKHKVYACEVTHQGLSSPVTKSFNRGEC
notes: Anti-human Epiregulin IgG1 with G236A/S239D/I332E in both CH2 domains and knobs-into-holes in CH3

- Kd [7]: 18 nM
- Kd [6]: 5850 nM
- Relative value to KD between G1d and hFcγRs [8]: 1.8 times
- Relative value to KD between G1d and hFcγRs [9]: 1.1 times
- EC50 value of hFcγRIIIaV-mediated reporter gene induction activity [10]: 5.16 ng/mL
B6: EGL-afucosyl (H240-G1d/L73-k_glycomab) (antibody)
heavy: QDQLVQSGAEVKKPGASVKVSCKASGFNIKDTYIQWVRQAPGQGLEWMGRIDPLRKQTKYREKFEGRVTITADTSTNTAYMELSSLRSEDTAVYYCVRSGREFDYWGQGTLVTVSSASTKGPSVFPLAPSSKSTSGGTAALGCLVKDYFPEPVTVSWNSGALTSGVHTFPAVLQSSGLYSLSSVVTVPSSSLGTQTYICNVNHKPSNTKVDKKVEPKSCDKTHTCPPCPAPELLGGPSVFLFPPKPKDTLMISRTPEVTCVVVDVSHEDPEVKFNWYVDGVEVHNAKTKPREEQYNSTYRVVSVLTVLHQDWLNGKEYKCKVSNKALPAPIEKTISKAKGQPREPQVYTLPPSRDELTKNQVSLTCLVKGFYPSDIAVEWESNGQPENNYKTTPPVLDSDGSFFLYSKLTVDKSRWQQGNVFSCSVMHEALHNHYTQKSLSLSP
VL: DIQMTQSPSSLSASVGDRVTITCRASQDIHKYIAWYQQKPGQAPRLLIQYTSTLQPGVPSRFSGSGSGTDYTFTISSLQPEDIATYYCLQYEQLRTFGGGTKVEIK
modifications: afucosylated (fucose-deficient sugar chain) ; Afucosylated (fucose-deficient) N-glycan at Asn297 (EU) of the heavy chain; the letters cannot carry it.
notes: Same heavy chain as EGL-G1d, produced in cells that give fucose-deficient antibodies; also called afucosylated antibody
